From patent US20180140673A1 (Novo Nordisk, published 2018)
Residue numbers refer to the chain shown, from its start. Like-named read-outs stand apart in the source and are kept apart here.

Key:
Assay in all cases: cell-based or functional assay
[1] = molecular target: T1, FGFR1c receptor/BKL complex on differentiated mouse 3T3-L1 adipocytes (mouse, UniProt P16092 22-822; Q99N32 1-1043)
[2] = molecular target: T2, FGF receptor/BKL complex on HEK293 cells overexpressing human beta-klotho (BKL) (human, UniProt Q86Z14 1-1044)
[3] = molecular target: T2, FGF receptor/BKL complex on HEK293 …; remark: listed apart in the source
[4] = molecular target: T2, FGF receptor/BKL complex on HEK293 …; remark: listed apart in the source
[5] = molecular target: T1, FGFR1c receptor/BKL complex on …; remark: listed apart in the source

T2 sequence (Q86Z14 whole entry, one chain of several): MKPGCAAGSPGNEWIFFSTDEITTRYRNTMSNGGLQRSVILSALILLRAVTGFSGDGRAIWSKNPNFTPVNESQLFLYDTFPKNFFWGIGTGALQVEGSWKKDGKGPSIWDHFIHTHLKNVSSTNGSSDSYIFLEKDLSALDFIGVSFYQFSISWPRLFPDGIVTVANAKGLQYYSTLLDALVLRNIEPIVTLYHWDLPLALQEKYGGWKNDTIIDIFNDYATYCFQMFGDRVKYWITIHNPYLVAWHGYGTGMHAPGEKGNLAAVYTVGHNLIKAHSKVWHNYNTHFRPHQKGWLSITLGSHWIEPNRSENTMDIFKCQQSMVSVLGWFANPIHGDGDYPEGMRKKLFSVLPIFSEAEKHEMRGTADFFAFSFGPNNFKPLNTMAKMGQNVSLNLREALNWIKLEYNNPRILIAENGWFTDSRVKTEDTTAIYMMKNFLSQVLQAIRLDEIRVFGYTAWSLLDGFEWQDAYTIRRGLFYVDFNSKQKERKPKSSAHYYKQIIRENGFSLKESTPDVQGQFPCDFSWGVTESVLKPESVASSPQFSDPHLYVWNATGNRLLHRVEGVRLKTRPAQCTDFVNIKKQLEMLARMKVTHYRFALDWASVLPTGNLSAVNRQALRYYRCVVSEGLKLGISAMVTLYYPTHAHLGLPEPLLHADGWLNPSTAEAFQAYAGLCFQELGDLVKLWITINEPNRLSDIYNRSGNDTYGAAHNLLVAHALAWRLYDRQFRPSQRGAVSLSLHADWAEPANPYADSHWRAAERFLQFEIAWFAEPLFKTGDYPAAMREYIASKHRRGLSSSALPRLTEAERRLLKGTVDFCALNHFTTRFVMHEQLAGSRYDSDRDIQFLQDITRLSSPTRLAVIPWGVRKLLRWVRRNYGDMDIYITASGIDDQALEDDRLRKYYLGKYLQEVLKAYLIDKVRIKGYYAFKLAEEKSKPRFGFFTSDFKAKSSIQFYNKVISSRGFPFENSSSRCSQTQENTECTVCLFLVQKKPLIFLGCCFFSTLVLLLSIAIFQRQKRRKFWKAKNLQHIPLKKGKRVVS
T1 sequence (P16092 22-822, chain 1 of 2): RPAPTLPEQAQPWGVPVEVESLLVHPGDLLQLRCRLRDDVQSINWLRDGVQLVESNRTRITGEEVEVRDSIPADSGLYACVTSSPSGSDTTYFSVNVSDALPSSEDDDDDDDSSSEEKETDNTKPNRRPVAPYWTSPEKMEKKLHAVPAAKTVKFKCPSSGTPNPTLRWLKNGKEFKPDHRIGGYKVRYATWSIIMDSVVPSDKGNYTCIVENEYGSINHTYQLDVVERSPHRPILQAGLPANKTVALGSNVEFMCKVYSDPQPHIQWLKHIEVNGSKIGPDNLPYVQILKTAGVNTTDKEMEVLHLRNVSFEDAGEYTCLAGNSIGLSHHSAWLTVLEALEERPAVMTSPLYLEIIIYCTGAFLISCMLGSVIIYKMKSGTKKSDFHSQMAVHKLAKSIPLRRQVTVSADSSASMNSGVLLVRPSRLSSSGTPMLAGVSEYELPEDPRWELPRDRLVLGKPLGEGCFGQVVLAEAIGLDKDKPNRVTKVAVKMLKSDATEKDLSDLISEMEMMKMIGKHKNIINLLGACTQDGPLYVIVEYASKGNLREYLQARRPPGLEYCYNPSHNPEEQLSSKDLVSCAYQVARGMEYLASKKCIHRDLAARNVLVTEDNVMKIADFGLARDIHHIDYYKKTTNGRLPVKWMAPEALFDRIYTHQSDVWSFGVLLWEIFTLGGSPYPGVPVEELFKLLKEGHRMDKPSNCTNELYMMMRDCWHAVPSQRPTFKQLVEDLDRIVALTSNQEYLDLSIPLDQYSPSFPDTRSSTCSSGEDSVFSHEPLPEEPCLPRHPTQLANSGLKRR
T1 sequence (Q99N32 whole entry, chain 2 of 2): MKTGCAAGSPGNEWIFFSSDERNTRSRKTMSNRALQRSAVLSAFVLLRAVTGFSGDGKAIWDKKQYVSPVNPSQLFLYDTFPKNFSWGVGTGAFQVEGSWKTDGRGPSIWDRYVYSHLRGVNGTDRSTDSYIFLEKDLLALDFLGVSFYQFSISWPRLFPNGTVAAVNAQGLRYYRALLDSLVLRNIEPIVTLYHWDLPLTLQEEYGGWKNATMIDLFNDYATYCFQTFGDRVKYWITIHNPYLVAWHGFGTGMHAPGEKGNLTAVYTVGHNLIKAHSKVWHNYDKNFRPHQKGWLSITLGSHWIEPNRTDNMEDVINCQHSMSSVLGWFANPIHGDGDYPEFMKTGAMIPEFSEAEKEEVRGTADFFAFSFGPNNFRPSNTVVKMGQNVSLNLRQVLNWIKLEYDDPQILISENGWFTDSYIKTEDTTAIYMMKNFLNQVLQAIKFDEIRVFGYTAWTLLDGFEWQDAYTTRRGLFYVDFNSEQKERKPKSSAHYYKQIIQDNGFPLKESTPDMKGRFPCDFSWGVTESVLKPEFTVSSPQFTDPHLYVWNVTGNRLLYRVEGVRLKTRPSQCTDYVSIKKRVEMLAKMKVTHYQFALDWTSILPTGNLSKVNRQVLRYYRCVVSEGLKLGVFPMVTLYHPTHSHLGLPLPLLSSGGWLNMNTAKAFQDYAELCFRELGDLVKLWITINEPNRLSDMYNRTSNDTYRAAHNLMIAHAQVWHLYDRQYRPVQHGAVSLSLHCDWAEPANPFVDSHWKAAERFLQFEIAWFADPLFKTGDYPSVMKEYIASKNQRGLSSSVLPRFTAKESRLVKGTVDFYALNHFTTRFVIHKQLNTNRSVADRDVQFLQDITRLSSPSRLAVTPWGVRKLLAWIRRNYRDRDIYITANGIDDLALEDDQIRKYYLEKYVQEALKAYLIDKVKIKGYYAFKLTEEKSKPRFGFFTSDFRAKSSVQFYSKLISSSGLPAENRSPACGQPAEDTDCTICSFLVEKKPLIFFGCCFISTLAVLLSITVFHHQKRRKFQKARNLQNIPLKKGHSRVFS

B1: MetFGF21 (ligand)
chain: MHPIPDSSPLLQFGGQVRQRYLYTDDAQQTEAHLEIREDGTVGGAADQSPESLLQLKALKPGVIQILGVKTSRFLCQRPDGALYGSLHFDPEACSFRELLLEDGYNVYQSEAHGLPLHLPGNKSPHRDPAPRGPARFLPLPGLPPALPEPPGILAPQPPDVGSSDPLSMVGPSQGRSPSYAS
Glucose uptake EC50 (nM), 3T3-L1 adipocytes [1]: 1.2 nM | EC50 (nM), pERK, HEK293/BKL cells [2]: 1.8 nM

B2: Ala[Gln121,Leu168,Cys171]FGF21 (ligand)
chain: B1 chain with M1A, N122Q, M169L, P172C
EC50 (nM), pERK, HEK293/BKL cells [3]: 8 nM

B3: S{Beta-181}-[2-[2-[[2-[2-[2-[[2-[2-[2-[[(4S)-4-carboxy-4-(17-carboxyheptadecanoyl-amino)butanoyl]amino]ethoxy]ethoxy]acetyl]amino]ethoxy]ethoxy]acetyl]amino]-et … (ligand)
chain: B1 chain with S182C
modifications: Cys181 (numbering of mature human FGF21): side chain on the sulfur atom; protractor C18 diacid; reagent of Example 4.5
EC50 (0.1% HSA) (nM), pERK, HEK293/BKL cells [4]: 71 nM | EC50 (nM), pERK, HEK293/BKL cells [4]: 16 nM | Glucose uptake EC50 (nM), 3T3-L1 adipocytes [5]: 37 nM
